Results from the supplement of paper PMC7877785.
± gives the uncertainty stated by the source.

Assay: self-splicing fitness, log relative to wild type (ln ratio); higher = more splicing; Tetrahymena group I intron in knt gene, E. coli kanamycin selection, DiMSum; sequences stand for … in CUCUCU…GGAGGGAAAAGUUAUCAGGCAUGCACCUGGUAGCUAGUCUUUAAACCAAUAGAUUGCAUCGGUUUAAAAGGCAAGACCGUCAAAUUGCGGGAAAGGGGUCAACAGCCGUUCAGUACCAAGUCUCAGGGGAAACUUUGAGAUGGCCUUGCAAAGGGUAUGGUAAUAAGCUGACGGACAUGGUCCUAACCACGCAGCCAAGUCCUAAGUCAACAGAUCUUCUGUUGAUAUGGAUGCAGUUCACAGACUAAAUGUCGGUCGGGGAAGAUGUAUUCUUCUCAUAAGAUAUAGUCGGACCUCUCCUUAAUGGGAGCUAGCGGAUGAAGUGAUGCAACACUGGAGCCGCUGGGAACUAAUUUGUAUGCGAAAGUAUAUUGAUUAGUUUUGGAGUACUCGUGGUCG
Method in brief: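 Colonies from six replicate transformations of E. coli BL21(DE3) were pooled and amplicon-sequenced on an Illumina HiSeq 2500. The library placed an intron with all eight P1ex-region nucleotides randomised inside the knt kanamycin-resistance gene on pET-22b(+), and cells grew overnight at 37°C or 30°C on LB agar with or without 25 μg/mL kanamycin (plus 100 μg/mL carbenicillin, 50 μM IPTG, 0.2% rhamnose). Fitness is the DiMSum error-weighted combination of wild-type-normalised replicate fold changes, kanamycin versus none.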

| Sequence | self-splicing fitness (ln) (30 °C) | self-splicing fitness (ln) (37 °C) |
| --- | --- | --- |
| CCGAAGCAAUAUUACGGUUU | -4.44 ± 0.25 | -2.23 ± 0.17 |
| CCGAAGCAAUAUUACGUAAC | -4.94 ± 0.34 | -1.67 ± 0.2 |
| CCGAAGCAAUAUUACGUACU | -3.91 ± 0.27 | -2.39 ± 0.19 |
| CCGAAGCAAUAUUACGUCAC | -3.29 ± 0.35 | – |
| CCGAAGCAAUAUUACGUCAU | -4.87 ± 0.42 | -3.03 ± 0.33 |
| CCGAAGCAAUAUUACGUGAG | -1 ± 0.065 | -0.698 ± 0.084 |
| CCGAAGCAAUAUUACGUUAC | -3.03 ± 0.16 | -2.43 ± 0.26 |
| CCGAAGCAAUAUUACGUUAG | -1.97 ± 0.093 | -0.908 ± 0.082 |
| CCGAAGCAAUAUUACGUUGG | -3.26 ± 0.19 | -2.16 ± 0.19 |
| CCGCAGCAAUAUUACGAAAG | -0.925 ± 0.066 | 0.125 ± 0.084 |
| CCGCAGCAAUAUUACGAAAU | -3.66 ± 0.32 | -3.38 ± 0.33 |
| CCGCAGCAAUAUUACGAACA | -2.19 ± 0.27 | – |
| CCGCAGCAAUAUUACGACCU | -3.36 ± 0.23 | -2.63 ± 0.29 |
| CCGCAGCAAUAUUACGACGC | -3.71 ± 0.35 | -2.74 ± 0.27 |
| CCGCAGCAAUAUUACGACUG | -3.17 ± 0.14 | -1.71 ± 0.13 |
| CCGCAGCAAUAUUACGAGCC | -3.64 ± 0.23 | -2.09 ± 0.2 |
| CCGCAGCAAUAUUACGAGGG | -1.99 ± 0.091 | -2.71 ± 0.19 |
| CCGCAGCAAUAUUACGAGUG | -0.193 ± 0.052 | -0.212 ± 0.069 |
| CCGCAGCAAUAUUACGAUAA | -2 ± 0.19 | -1.2 ± 0.24 |
| CCGCAGCAAUAUUACGAUUU | -3.28 ± 0.14 | -2.22 ± 0.15 |
| CCGCAGCAAUAUUACGCAGG | -2.77 ± 0.11 | -2.93 ± 0.2 |
| CCGCAGCAAUAUUACGCCGA | -2.35 ± 0.19 | -1.42 ± 0.14 |
| CCGCAGCAAUAUUACGGACU | -3.14 ± 0.17 | -2.31 ± 0.25 |
| CCGCAGCAAUAUUACGGAUA | -4.16 ± 0.22 | -2.91 ± 0.23 |
| CCGCAGCAAUAUUACGGAUC | – | -2.39 ± 0.41 |

| Sequence | self-splicing fitness (ln) (30 °C) | self-splicing fitness (ln) (37 °C) |
| --- | --- | --- |
| CCGCAGCAAUAUUACGGGAA | -4.03 ± 0.28 | -2.71 ± 0.23 |
| CCGCAGCAAUAUUACGGUAA | -3.69 ± 0.27 | -1.99 ± 0.18 |
| CCGCAGCAAUAUUACGGUCG | -0.439 ± 0.053 | 0.0144 ± 0.066 |
| CCGCAGCAAUAUUACGUAAC | -3.86 ± 0.3 | -2.7 ± 0.29 |
| CCGCAGCAAUAUUACGUACG | -0.247 ± 0.058 | 0.254 ± 0.069 |
| CCGCAGCAAUAUUACGUAUC | -4.05 ± 0.28 | -1.91 ± 0.2 |
| CCGCAGCAAUAUUACGUCGU | -4.02 ± 0.17 | -2.79 ± 0.15 |
| CCGCAGCAAUAUUACGUGUC | -3.88 ± 0.2 | -2.34 ± 0.14 |
| CCGGAGCAAUAUUACGAACA | -2.82 ± 0.41 | -2.9 ± 0.32 |
| CCGGAGCAAUAUUACGACAG | -0.593 ± 0.13 | -0.569 ± 0.14 |
| CCGGAGCAAUAUUACGACAU | -3.816 ± 0.032 | -3.02 ± 0.045 |
| CCGGAGCAAUAUUACGACGA | -0.828 ± 0.23 | -1.07 ± 0.24 |
| CCGGAGCAAUAUUACGAGAG | -2.13 ± 0.22 | -2.33 ± 0.22 |
| CCGGAGCAAUAUUACGAUGA | -2.7 ± 0.23 | -1.37 ± 0.23 |
| CCGGAGCAAUAUUACGCAGU | -3.74 ± 0.28 | -2.13 ± 0.25 |
| CCGGAGCAAUAUUACGCGAU | -3.82 ± 0.27 | -2.62 ± 0.33 |
| CCGGAGCAAUAUUACGCGGU | -3.21 ± 0.16 | -2.96 ± 0.23 |
| CCGGAGCAAUAUUACGCUCG | -3.16 ± 0.28 | – |
| CCGGAGCAAUAUUACGGACC | -2.12 ± 0.4 | -1.64 ± 0.45 |
| CCGGAGCAAUAUUACGGAUC | -2.42 ± 0.31 | – |
| CCGGAGCAAUAUUACGGCGC | – | -0.565 ± 0.49 |
| CCGGAGCAAUAUUACGGGUC | -3.5 ± 0.27 | -2.77 ± 0.35 |
| CCGGAGCAAUAUUACGGUCG | -1.22 ± 0.097 | -0.072 ± 0.13 |
| CCGGAGCAAUAUUACGUCUC | -3.22 ± 0.31 | -2.69 ± 0.39 |
| CCGGAGCAAUAUUACGUUGA | – | -2.61 ± 0.36 |

| Sequence | self-splicing fitness (ln) (30 °C) | self-splicing fitness (ln) (37 °C) |
| --- | --- | --- |
| CCGGAGCAAUAUUACGUUGC | -2.35 ± 0.32 | – |
| CCGUAGCAAUAUUACGACAU | -3.773 ± 0.027 | -2.94 ± 0.042 |
| CCGUAGCAAUAUUACGACUG | -0.0597 ± 0.12 | -0.95 ± 0.15 |
| CCGUAGCAAUAUUACGAGUA | – | -2.04 ± 0.22 |
| CCGUAGCAAUAUUACGAGUG | -1.07 ± 0.069 | -0.807 ± 0.083 |
| CCGUAGCAAUAUUACGAUAA | -4.17 ± 0.39 | -1.99 ± 0.28 |
| CCGUAGCAAUAUUACGCAAA | – | -2.24 ± 0.25 |
| CCGUAGCAAUAUUACGCCUG | -0.012 ± 0.085 | -0.0205 ± 0.084 |
| CCGUAGCAAUAUUACGCGGU | -3.13 ± 0.27 | -2.38 ± 0.3 |
| CCGUAGCAAUAUUACGCUCG | -1.1 ± 0.2 | -0.457 ± 0.23 |
| CCGUAGCAAUAUUACGGCAA | -3.49 ± 0.43 | -2.42 ± 0.42 |
| CCGUAGCAAUAUUACGGCAC | -3.83 ± 0.42 | -2.14 ± 0.26 |
| CCGUAGCAAUAUUACGGGAA | – | -2.04 ± 0.31 |
| CCGUAGCAAUAUUACGGGAU | -4.51 ± 0.29 | -2.53 ± 0.2 |
| CCGUAGCAAUAUUACGGGUA | -2.75 ± 0.32 | -2.67 ± 0.36 |
| CCGUAGCAAUAUUACGUGAU | -3.04 ± 0.14 | -2.43 ± 0.18 |
| CCUAAGCAAUAUUACGAAGC | -2.92 ± 0.18 | -1.92 ± 0.28 |
| CCUAAGCAAUAUUACGACAA | -3.28 ± 0.22 | -2.54 ± 0.2 |
| CCUAAGCAAUAUUACGAGAG | -2.31 ± 0.17 | -1.23 ± 0.13 |
| CCUAAGCAAUAUUACGAGCA | -2.92 ± 0.3 | -3.08 ± 0.35 |
| CCUAAGCAAUAUUACGAGGG | -3.2 ± 0.17 | -3 ± 0.35 |
| CCUAAGCAAUAUUACGAGUC | -3.77 ± 0.22 | – |
| CCUAAGCAAUAUUACGCGAU | -3.49 ± 0.24 | -2.31 ± 0.27 |
| CCUAAGCAAUAUUACGCGUA | -1.88 ± 0.25 | -2.19 ± 0.33 |
| CCUAAGCAAUAUUACGCUAC | – | -1.53 ± 0.31 |

| Sequence | self-splicing fitness (ln) (30 °C) | self-splicing fitness (ln) (37 °C) |
| --- | --- | --- |
| CCUAAGCAAUAUUACGCUCU | -2.4 ± 0.14 | -2.94 ± 0.3 |
| CCUAAGCAAUAUUACGGACC | -3.02 ± 0.49 | – |
| CCUAAGCAAUAUUACGGCGG | -3.12 ± 0.17 | -2.79 ± 0.2 |
| CCUAAGCAAUAUUACGGCUC | -3.13 ± 0.23 | -1.56 ± 0.21 |
| CCUAAGCAAUAUUACGGGUG | -2.47 ± 0.077 | -1.11 ± 0.073 |
| CCUAAGCAAUAUUACGGUCA | -3.95 ± 0.37 | -3.01 ± 0.2 |
| CCUAAGCAAUAUUACGUAGU | -1.3 ± 0.061 | -0.474 ± 0.083 |
| CCUAAGCAAUAUUACGUCAA | -2.65 ± 0.16 | -3.14 ± 0.21 |
| CCUAAGCAAUAUUACGUCAG | -1.58 ± 0.12 | -0.812 ± 0.12 |
| CCUAAGCAAUAUUACGUGUC | -3.86 ± 0.27 | -1.54 ± 0.12 |
| CCUCAGCAAUAUUACGAAGC | -2.92 ± 0.15 | -2.44 ± 0.25 |
| CCUCAGCAAUAUUACGAAUG | -1.01 ± 0.089 | -0.196 ± 0.1 |
| CCUCAGCAAUAUUACGACUU | -3.69 ± 0.42 | -2.43 ± 0.26 |
| CCUCAGCAAUAUUACGAGCU | -4.22 ± 0.37 | -1.9 ± 0.23 |
| CCUCAGCAAUAUUACGAGGG | -4.16 ± 0.26 | -2.73 ± 0.28 |
| CCUCAGCAAUAUUACGAUGG | -4.2 ± 0.19 | -2.69 ± 0.16 |
| CCUCAGCAAUAUUACGAUUA | -2.62 ± 0.22 | -2.23 ± 0.19 |
| CCUCAGCAAUAUUACGCAGU | -3.09 ± 0.22 | -1.67 ± 0.28 |
| CCUCAGCAAUAUUACGCCCU | -2.29 ± 0.24 | -2.73 ± 0.48 |
| CCUCAGCAAUAUUACGCGCA | -3.31 ± 0.27 | -2.74 ± 0.23 |
| CCUCAGCAAUAUUACGCGGG | -4.06 ± 0.28 | -2.34 ± 0.29 |
| CCUCAGCAAUAUUACGCGUC | -4.16 ± 0.46 | -2.18 ± 0.34 |
| CCUCAGCAAUAUUACGCUCU | -4.29 ± 0.43 | – |
| CCUCAGCAAUAUUACGGACC | – | -3.01 ± 0.31 |
| CCUCAGCAAUAUUACGGCCC | -4.21 ± 0.39 | – |
